Ends that are not written are not given here. * marks the point of attachment. Biotin = O=C1N[C@H]2[C@H](CS[C@H]2CCCCC(=O)*)N1
What was measured:
Test in all cases: peptide or protein array; E. coli proteome chip: purified His-tagged proteins printed in duplicate on Fullmoon slides, blocked with 1% BSA; 10 nM N-terminal biotinylated LfcinB with 1% BSA, room temperature, 1 h; detected with DyLight 649-labeled streptavidin, ratio to DyLight 549-labeled anti-His antibody; ProCAT normalisation, local cut-off; triplicate chips
Conditions in all cases: both partners purified
YijC = biological target: T1, YijC (E. coli K-12, UniProt P0ACU5 1-234)
T1 construct: YijC, E. coli K-12
T1 sequence (looked up): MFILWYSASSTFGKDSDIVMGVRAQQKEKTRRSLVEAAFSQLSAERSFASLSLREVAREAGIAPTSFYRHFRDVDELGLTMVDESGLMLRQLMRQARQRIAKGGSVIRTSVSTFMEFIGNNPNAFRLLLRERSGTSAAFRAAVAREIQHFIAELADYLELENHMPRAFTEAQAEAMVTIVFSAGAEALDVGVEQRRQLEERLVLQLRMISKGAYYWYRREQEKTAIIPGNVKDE

MalP = MalP (E. coli K-12, UniProt P00490 1-797)
YobG = biological target: T2, YobG (E. coli K-12, UniProt P64512 1-47)
T2 construct: YobG, E. coli K-12
T2 chain (looked up): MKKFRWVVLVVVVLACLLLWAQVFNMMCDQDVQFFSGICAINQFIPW

adenylate cyclase CyaA = biological target: T3, adenylate cyclase CyaA (E. coli K-12, UniProt P00936 1-848)
T3 construct: CyaA, adenylate cyclase, E. coli K-12
T3 sequence (looked up): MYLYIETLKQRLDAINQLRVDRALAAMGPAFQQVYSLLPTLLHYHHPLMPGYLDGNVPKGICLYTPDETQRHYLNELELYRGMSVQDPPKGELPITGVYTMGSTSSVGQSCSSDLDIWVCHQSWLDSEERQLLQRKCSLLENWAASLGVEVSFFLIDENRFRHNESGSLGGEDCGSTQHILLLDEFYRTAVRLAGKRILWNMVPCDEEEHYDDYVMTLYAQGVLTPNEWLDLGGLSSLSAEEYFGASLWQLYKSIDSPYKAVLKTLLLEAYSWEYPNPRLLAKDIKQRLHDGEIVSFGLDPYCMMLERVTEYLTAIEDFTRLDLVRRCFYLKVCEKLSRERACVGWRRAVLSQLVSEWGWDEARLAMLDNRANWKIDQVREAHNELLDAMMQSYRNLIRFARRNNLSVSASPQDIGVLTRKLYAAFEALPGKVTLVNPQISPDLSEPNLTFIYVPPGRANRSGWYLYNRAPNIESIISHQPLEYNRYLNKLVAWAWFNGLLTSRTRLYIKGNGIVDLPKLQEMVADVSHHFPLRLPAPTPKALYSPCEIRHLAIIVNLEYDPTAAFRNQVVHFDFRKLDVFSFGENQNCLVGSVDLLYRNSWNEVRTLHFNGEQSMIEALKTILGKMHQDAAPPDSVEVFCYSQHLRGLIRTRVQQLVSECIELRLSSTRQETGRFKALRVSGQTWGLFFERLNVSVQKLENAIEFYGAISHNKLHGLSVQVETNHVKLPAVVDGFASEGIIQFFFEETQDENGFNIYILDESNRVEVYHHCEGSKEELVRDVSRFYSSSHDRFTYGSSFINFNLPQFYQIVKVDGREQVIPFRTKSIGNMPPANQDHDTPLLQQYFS

WcaL = biological target: T4, WcaL (E. coli K-12, UniProt P71243 1-406)
T4 construct: WcaL, E. coli K-12
T4 sequence (looked up): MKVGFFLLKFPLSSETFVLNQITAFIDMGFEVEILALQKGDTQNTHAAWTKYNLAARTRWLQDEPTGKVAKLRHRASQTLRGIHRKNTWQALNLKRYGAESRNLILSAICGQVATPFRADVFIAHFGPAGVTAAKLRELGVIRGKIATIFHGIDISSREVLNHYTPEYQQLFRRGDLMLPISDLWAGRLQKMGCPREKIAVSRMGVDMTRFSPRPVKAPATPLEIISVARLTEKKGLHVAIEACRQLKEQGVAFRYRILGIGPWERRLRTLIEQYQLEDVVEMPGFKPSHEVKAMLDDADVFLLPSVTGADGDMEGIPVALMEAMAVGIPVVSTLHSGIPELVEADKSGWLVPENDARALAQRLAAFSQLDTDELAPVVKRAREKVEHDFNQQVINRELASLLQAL

Measured: binding result

B1: N-terminal biotinylated Lactoferricin B (peptide, UniProt P24627 36-60, looked up)
peptide: Biotin-FKCRRWQWRMKKLGAPSITCVRRAF
modifications: ends and bridges not checked
notes: lactoferricin B (LfcinB), cationic antimicrobial peptide of 25 amino acids; also called biotinylated LfcinB; biotin-labeled LfcinB; source: bought: Kelowna Inc
binds: all assays above
